Reference: patent US20190100594A1 (INHIBRX, published 2019)
Residue numbers refer to the chain shown, from its start. Read-outs that look alike come from different tables or passages of the source. Blank lines part the entries; values can stand above or below the binder they belong to.

Tests used:
[1] = biological target: T1, GITR expressed on CHO cells (Homo sapiens (Human), UniProt Q9Y5U5 26-241); test: flow cytometry competition on GITR-expressing CHO cells; blocked ligand recombinant GITRL; readout GITRL bound, MFI-FL1
T1 construct: also called glucocorticoid-induced TNFR-related protein; TNFRSF18
T1 sequence: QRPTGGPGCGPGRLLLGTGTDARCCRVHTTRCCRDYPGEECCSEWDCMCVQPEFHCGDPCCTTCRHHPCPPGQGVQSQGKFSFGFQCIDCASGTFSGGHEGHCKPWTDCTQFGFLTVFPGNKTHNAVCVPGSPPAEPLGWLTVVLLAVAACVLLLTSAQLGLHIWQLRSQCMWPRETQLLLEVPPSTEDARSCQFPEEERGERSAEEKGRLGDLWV
Source text: Briefly, in these studies, a flow cytometry assay using GITR expressing CHO cells and recombinant GITRL was used to implement to assess blocking capacity. The GITR antibody, TRX-518, was used as a control for these studies.

[2] = biological target: T1, GITR expressed on CHO cells; test: flow cytometry on GITR-expressing CHO cells, MFI-FL4
[3] = biological target: T1, GITR expressed on CHO cells; test: as above; remark: listed apart in the source
[4] = biological target: T2, human GITR-CHO (human, UniProt Q9Y5U5); test: flow cytometry on human GITR-CHO cells
T2 construct: expressed on the surface of CHO cells, construct not described; also called human GITR expressed on the surface of CHO cells
T2 sequence (looked up): T1 sequence

[5] = biological target: T2, human GITR-CHO; test: flow cytometry on human GITR-CHO cells; remark: listed apart in the source
[6] = biological target: T3, cyno GITR-CHO (cynomolgus monkey); test: flow cytometry on cyno GITR-CHO cells
T3 construct: expressed on the surface of CHO cells, construct not described; also called cynomolgus GITR expressed on the surface of CHO cells

[7] = biological target: T3, cyno GITR-CHO; test: flow cytometry on cyno GITR-CHO cells; remark: listed apart in the source
[8] = biological target: T2, human GITR-CHO; test: flow cytometry on human GITR-CHO cells; remark: listed apart in the source
[9] = biological target: T2, human GITR-CHO; test: flow cytometry on human GITR-CHO cells; remark: listed apart in the source
[10] = biological target: T3, cyno GITR-CHO; test: flow cytometry on cyno GITR-CHO cells; remark: listed apart in the source

- IC50 (read off the curve) [1]: 2 to 3 nM
- EC50 (read off the curve) [2]: ~2 nM
B1: C7 (VHH, not shown: a dimerising Fc or GST)
VHH: QVQLQESGGGLVQAGGSLRLSCTASGSIFSIDDMGWYRLAPGKQRELVAVHSGSSTNYGDSVKGRFTISGDSAKNTVYLQMHRLEPEDTAVYYCYAAISSGWGRDAEDYWGQGTQVTVS

- IC50 (read off the curve) [1]: ~1 nM
- EC50 (read off the curve) [3]: ~1 nM
B2: F2 (VHH, not shown: a dimerising Fc or GST; small tags and cut ends)
VHH: QLVQSGGGLVQPGESLRLSCAASGSVFSIDSVSWFRQGPGNERELVALITGGRTTTYADSVKGRFTISRANAPNTVHLRMNSLKPEDTAVYYCNAAVSTGWGRNADDYWGQGTQVTVS

- IC50 (read off the curve) [1]: 2 to 3 nM
- EC50 (read off the curve) [2]: 2 to 3 nM
B3: H11 (VHH, not shown: a dimerising Fc or GST)
VHH: QVQLVQSGGGLVQPGGSLRLSCAASGSVFSIDSMSWFRQAPGNERELVALITGGRTTTYADSVKGRFTISRASAPNTVHLQMNSLKPEDTAVYYCNAVVSTGWGRNADDYWGQGTQVTVS

- IC50 (read off the curve) [1]: ~3 nM
- EC50 (read off the curve) [2]: ~3 nM
B4: B7 (VHH, not shown: a dimerising Fc or GST)
VHH: B3 VHH with V5Q, Q6E, A40T, L50H, S84N, V98A

- IC50 (read off the curve) [1]: 2 to 3 nM
- EC50 (read off the curve) [2]: 2 to 3 nM
B5: C4 (VHH, not shown: a dimerising Fc or GST)
VHH: B3 VHH with G16E, A40G, S73N, V98A, N106S

- IC50 (read off the curve) [1]: ~1 nM
- EC50 (read off the curve) [3]: ~0.7 nM
B6: B2 (VHH, not shown: a dimerising Fc or GST; small tags and cut ends)
VHH: B3 VHH with V5Q, Q6E, R55H, A60G, K86Q, V98A

- IC50 (read off the curve) [1]: ~3 nM
- EC50 (read off the curve) [3]: ~2 nM
B7: B3 (VHH, not shown: a dimerising Fc or GST)
VHH: B3 VHH with S21I, A40R, A60S, P75L, V98A, V99L, N106D, D108S, D109A

- IC50 (read off the curve) [1]: ~2 nM
- EC50 (read off the curve) [3]: ~1 nM
B8: E2 (VHH, not shown: a dimerising Fc or GST; small tags and cut ends)
VHH: B3 VHH with V5Q, Q6E, H79Y

- IC50 (read off the curve) [1]: 2 to 3 nM
- EC50 (read off the curve) [2]: 2 to 3 nM
B9: B5 (VHH, not shown: a dimerising Fc or GST)
VHH: B3 VHH with G16E, A40G, S73N, K86E, V98A

- EC50 (read off the curve) [4]: 1 to 2 nM
B10: hzC06v3 (VHH)
VHH: EVQLLESGGGEVQPGGSLRLSCAASGSVFSIDAMGWYRQAPGKQRELVAVLSGISSAKYAESVKGRFTISRDNAKNTLYLQMSSLRAEDTAVYYCYADVSTGWGRDAHGYWGQGTLVTV

- EC50 (read off the curve) [5]: 1 to 2 nM
B11: hzC06v3.8 (VHH)
VHH: B10 VHH with E61A, V63A, K64P, N73A, A74V, K75E, L78V

- EC50 (read off the curve) [5]: 1 to 2 nM
B12: hzC06v3.11 (VHH)
VHH: B10 VHH with E61D, S62A, K64E, D72A, N73S, K75P, L78V

- EC50 (read off the curve) [5]: 1 to 2 nM
- EC50 (read off the curve) [6]: ~2 nM
B13: hzC06v3.12 (VHH)
VHH: B10 VHH with E61A, V63A, K64P, D72A, N73S, K75P, L78V

- EC50 (read off the curve) [4]: 1 to 2 nM
- EC50 (read off the curve) [7]: ~4 nM
B14: hzC06v1.3 (VHH)
VHH: B10 VHH with A49S, V50A, K58T

- EC50 (read off the curve) [5]: 1 to 2 nM
- EC50 (read off the curve) [6]: ~2 nM
B15: hzC06v3.10 (VHH)
VHH: B10 VHH with E61D, S62A, D72A, N73S, K75P, L78V

- EC50 (read off the curve) [4]: 1 to 2 nM
- EC50 (read off the curve) [7]: ~4 nM
B16: hzC06v1.2 (VHH)
VHH: B10 VHH with Q44G, A49S, V50A, K58T

- EC50 (read off the curve) [5]: 1 to 2 nM
- EC50 (read off the curve) [6]: ~2 nM
B17: hzC06v3.7 (VHH)
VHH: B10 VHH with E61A, V63A, K64P, N73A, A74V, L78V

- EC50 (read off the curve) [8]: ~4 nM
B18: hzC06v3.5 (VHH)
VHH: B10 VHH with D72A, N73S, K75P

- EC50 (read off the curve) [4]: 1 to 2 nM
- EC50 (read off the curve) [7]: ~4 nM
B19: hzC06v1.4 (VHH)
VHH: B10 VHH with K43Q, A49S, V50A, K58T

- EC50 (read off the curve) [8]: ~4 nM
B20: hzC06v3.2 (VHH)
VHH: B10 VHH with E61D, R71G

- EC50 (read off the curve) [4]: 1 to 2 nM
B21: hzC06v2.1 (VHH)
VHH: B10 VHH with Q44G, R45L, K58T

- EC50 (read off the curve) [4]: 1 to 2 nM
- EC50 (read off the curve) [7]: ~4 nM
B22: hzC06v2.3 (VHH)
VHH: B10 VHH with K58T

- EC50 (read off the curve) [8]: ~4 nM
B23: hzC06v3.1 (VHH)
VHH: B10 VHH with Q39L, K43Q

- EC50 (read off the curve) [5]: 1 to 2 nM
- EC50 (read off the curve) [6]: ~2 nM
B24: hzC06v3.9 (VHH)
VHH: B10 VHH with E61A, V63A, K64P, L78V

- EC50 (read off the curve) [4]: 1 to 2 nM
- EC50 (read off the curve) [7]: ~4 nM
B25: hzC06v2.4 (VHH)
VHH: B10 VHH with K43Q, K58T

- EC50 (read off the curve) [4]: 1 to 2 nM
- EC50 (read off the curve) [7]: ~4 nM
B26: hzC06v2.2 (VHH)
VHH: B10 VHH with Q44G, K58T

- EC50 (read off the curve) [4]: 1 to 2 nM
- EC50 (read off the curve) [7]: ~8 nM
B27: hzC06v1.1 (VHH)
VHH: B10 VHH with Q44G, R45L, A49S, V50A, K58T

- IC50 (read off the curve) [1]: ~6 nM
- EC50 (read off the curve) [2]: ~4 nM
B28: B12 (VHH, not shown: a dimerising Fc or GST)
VHH: QVQLQQSGGGLVQAGGSLRLSCAASGSIFSIDAMGWYRLAPGKQRELVAVIDGVSPNYADSVKGRFTISSDIAKNTVYLQMHSPKPEDTAVYYCNADVSTGWGRPADHYWGQGTQVTVS

- EC50 (read off the curve) [9]: ~2 nM
- EC50 (read off the curve) [10]: 1 to 2 nM
B29: hzCC04v5.5 (VHH)
VHH: EVQLLESGGGEVQPGGSLRLSCAASGFTFSTHGMDWFRQAPGKDLEWVSAIQSGGSWTSYASSVKGRFTISRDNAKNTLYLQMQQLRAEDTAVYWCQNRVTRGQGTLVTV
notes: sheet prints hzCC04, text hzC04; also called hzC04v5.5

- EC50 (read off the curve) [9]: ~2 nM
- EC50 (read off the curve) [10]: 1 to 2 nM
B30: hzCC04v5.11 (VHH)
VHH: B29 VHH with Q84N
notes: sheet prints hzCC04, text hzC04; also called hzC04v5.11

- EC50 (read off the curve) [9]: ~2 nM
- EC50 (read off the curve) [10]: 1 to 2 nM
B31: hzCC04v5.12 (VHH)
VHH: B29 VHH with Q84S, Q85N
notes: sheet prints hzCC04, text hzC04; also called hzC04v5.12

- EC50 (read off the curve) [9]: ~2 nM
- EC50 (read off the curve) [10]: 1 to 2 nM
B32: hzCC04v5.10 (VHH)
VHH: B29 VHH with Q85D
notes: sheet prints hzCC04, text hzC04; also called hzC04v5.10

- EC50 (read off the curve) [9]: ~2 nM
- EC50 (read off the curve) [10]: 1 to 2 nM
B33: hzCC04v5.6 (VHH)
VHH: B29 VHH with Q85N
notes: sheet prints hzCC04, text hzC04; also called hzC04v5.6

- EC50 (read off the curve) [9]: ~2 nM
- EC50 (read off the curve) [10]: 1 to 2 nM
B34: hzCC04v5.8 (VHH)
VHH: B29 VHH with Q84N, Q85D
notes: sheet prints hzCC04, text hzC04; also called hzC04v5.8

- EC50 (read off the curve) [9]: ~2 nM
- EC50 (read off the curve) [10]: 1 to 2 nM
B35: hzCC04v5.9 (VHH)
VHH: B29 VHH with Q84D, Q85D
notes: sheet prints hzCC04, text hzC04; also called hzC04v5.9

- EC50 (read off the curve) [9]: ~2 nM
- EC50 (read off the curve) [10]: 1 to 2 nM
B36: hzCC04v5.7 (VHH)
VHH: B29 VHH with Q84D, Q85N
notes: sheet prints hzCC04, text hzC04; also called hzC04v5.7
